What was measured:
MS2 coat protein [1] = assay: apparent KD of MS2 coat protein, switch ON state; designed switch direction (-1 OFF switch, 1 ON switch): 1; higher = weaker reporter binding; conditions: FMN input: 0 or 200 uM; Eterna round: R93 (includes R88 designs)
How it was run: (§1)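 For every design, apparent KD is the median of normalised binding-curve fits from its clusters. The RNA switches were transcribed on-chip from Illumina sequencing clusters and titrated with SNAP-549-labelled MS2 coat protein (twofold steps, 0.7 or 1.5 nM to 3 µM; 0.8–1.5 h to 10–20 min per step). Titrations used 100 mM Tris-HCl pH 7.5, 80 mM KCl, 4 mM MgCl2, without or with constant ligand.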

MS2 coat protein [2] = assay: apparent KD of MS2 coat protein, switch OFF state (with FMN for OFF switches, without FMN for ON switches); designed switch direction (-1 OFF switch, 1 ON switch): 1; higher = weaker reporter binding; conditions: FMN input: 0 or 200 uM; Eterna round: R93 (includes R88 designs)
How it was run: as §1

Sequence	apparent KD of MS2 coat protein (MS2 coat protein [1]) [µM]	apparent KD of MS2 coat protein (MS2 coat protein [2]) [µM]
AUAAAAUAAAGUGAGGAUAUCUAUAAUAAAACAUGAGGAUCACCCAUGUUAAAAAAAAGAUCAUGGGAGAAGGCAUAAAAUAAAU [SS2 M 31]	0.00751	0.0217
AUAACACAUGAGGAUCACCCAUGUAGAAACAAGUCAGGAUAUCCGAUCCACAUGUGAAAAGGAGAAGGGACACUAA [SS 1 Tesla 6]	0.0374	0.146
AUGAAAGUAACACAGGAUAUCCAGGAUACAACAUGAGGAUCACCCAUGUACAUACGAACGUAUAAGGAGAAGGGUGGAUGAUCUUC [ss2-2]	0.0507	0.0593
AUGAAGGAGAGAGAGGAUAUCCAAAGGGAAACAUGAGGAUCACCCAUGUAGAAGGUAGGAAAUUGGGAGAAGGCUCAAGAGAGAG [salish99-ss2-111]	0.0254	0.0269
CAGGACGUAGGAUAGGAUAUAUGAAUAAUUACAUGAGGAUCACCCAUGUCCAUUUAUAUGGGAACAUAGAAGGGUUGUGGUUAUG [Mat - Same state - Malcolm Mod - D144]	0.68	0.315
CAUAGACAUGAGGAUCACCCAUGUAGAAUUAUGGGAGGAUAUACAAAGACGAGAGUCAGAGUAGAAGGCCUAGGAA [salish99-ss1-160]	0.0202	0.0386
CAUCACGCGCCUAAGGAUAUGUCUCACAAGACAUGAGGAUCACCCAUGUAGACUAAAUAAACGAUGCAGAAGGUGGAGCGCAUGC [Usrexe]	0.0764	0.149
CAUCAUGCGCCUAAGGAUAUGUCUCACAAGACAUGAGGAUCACCCAUGUAGAACAAAUAAGUGAUGCAGAAGGUGGAGCGCAUGC [Edcequed]	0.0189	0.137
CGCGAACAUGAGGAUCACCCAUGUAAAUCGCAUGUAGGAUAUGGGAUACACAUUAAGAUCCCAGAAGGGCGGAAAA [Leeroner]	0.0238	0.0235
CGGAGACAUGAGGAUCACCCAUGUGAGAAGAGGCGAGGAUAUCGAAAAAAAAAAAAAAAACGAGAAGGCGCGAGAU [salish99-SS1-013]	0.034	0.0362
CGGAGACAUGAGGAUCACCCAUGUGAGAAGAGGCGAGGAUAUCGAAAGAAAGAAGAGAAACGAGAAGGCGCGAGAA [salish99-SS1-065]	0.0204	0.0328
CGGAGACAUGAGGAUCACCCAUGUGAGAAGAGGCGAGGAUAUCGAAAGAAAGAAGAGAAAUGAGAAGGCGCGAGCC [salish99-SS1-081]	0.0362	0.039
CGUAAACAUGAGGAUCACCCAUGUCAAUAUGAUCAAGGAUAUGGGUUCCGAAGUGGAACACCAGAAGGUGAAUAGU [Inrea]	0.377	0.58
CGUGAACAUGAGGAUCACCCAUGUGAAAAACAUAGAGGAUAUGUCGCGUGAGUGCAAAAGACAGAAGGCUAUCGUG [Mod 4 of Round 1 starryjess' Mod pf Nando]	0.0199	0.0351
GAAAAACAUGAGGAUCACCCAUGUAAAAAUAUGGGAGGAUAUACAAAGACGAAAGUCAAAGUAGAAGGCCUAAAAG [77%, Mat - Mod of Eli, 3]	0.0244	0.0597
GAAAAACAUGAGGAUCACCCAUGUAAGAUAAACACAGGAUAUGCGAAAAUAAAUAAAUAAGCAGAAGGGUGAAAAG [Mat - Same State 1 - Tesla mod - 78]	0.0257	0.0374
GAAAAACAUGAGGAUCACCCAUGUAGAAAUAUGGGAGGAUAUACAAAGACGAAAGUCAAAGUAGAAGGCCUAUAAG [Starry Same State 1.5 (mat747 round 1 mod)]	0.0177	0.0333
GAAAAACAUGAGGAUCACCCAUGUAGAAAUAUGGGAGGAUAUACAAAGACGAGAGUCAAAGUAGAAGGCCUAAAAG [Mat - Same State 1 - Eli mod - D9]	0.0284	0.0867
GAAAAACAUGAGGAUCACCCAUGUGAGAAUAUGGAAGGAUAUACAAAGACGAAAGUCAAAGUAGAAGGUCUAAAAG [Mat - Same State 1 - Eli mod - D15]	0.0289	0.0205
